In experiment [1] the target is T1, peptide 13 (aa 13-21 of Aβ).
T1 sequence (peptide, biotinylated (site not stated)): HHQKLVFFA
The experiment is described as follows: ELISA with biotinylated peptide Amyloid beta 13-21.

Experiment [2] deals with biotinylated complete Aβ1-42 peptide (Bachem) (UniProt P05067). The experiment is described as follows: ELISA with biotinylated complete Aβ1-42 peptide. Background: An ELISA detects its analyte on a solid surface through an enzyme-linked reagent.
The target in experiment [3] is T1, peptide 13 (aa 13-21 of Aβ). The experiment is described as follows: ELISA with biotinylated peptides (Mimotopes protocol).

Sequence of biotinylated complete Aβ1-42 peptide (Bachem) (P05067 672-713 limits assumed): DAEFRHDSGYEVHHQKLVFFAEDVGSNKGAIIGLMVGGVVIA

“humanized anti-human amyloid beta monoclonal antibody hC2”: the O.D turned out to be 1.23 O.D in experiment [1] and 0.9 O.D in experiment [2]. In experiment [3], this substance displayed a percent higher affinity than to the whole Aβ1-42 protein of 36%.

For the origin of these results see patent EP2074145B1.
